One block for each molecule: values may come before it.
Columns and labels:
[1] = system: MCM8; experiment: Nuclear export of MCM8 detected by nuclear-cytoplasmic separation; type: cell-based
Method: The cells were treated with leptomycin B, a nuclear export inhibitor, to inhibit the protein shuttle out of the nucleus, and the expressions of MCM8 in the cytoplasm (cyto) and the nucleus (nuc) were respectively detected by nuclear-cytoplasmic separation. […] It could be seen that ubiquitination was essential for the nuclear export of MCM8. […] (see Panel f, FIG. 12).

[2] = system: MCM8; experiment: TRIM21-mediated ubiquitination of MCM8; type: cell-based
[3] = system: pIRF3; experiment: pIRF3 level by western blot in normal or p0 THP-1 cells, MCM8 knockdown, SeV stimulation; type: cell-based, human; conditions: mitochondrion-free p0 THP-1 cells from EtBr treatment
Method: (§1) To further verify the mechanism of MCM8-cGAS-STING pathway, the inventors knocked down MCM8 in THP-1 cells, stimulated the cells with SeV, and then treated the cells with MTP complex pore inhibitor cyclosporine A (CsA) ([…]) to inhibit the release of mitochondrial DNA. […] The results were similar when the mitochondria in the cells were removed by EtBr treatment. The process was as follows: THP-1 cells were treated with EtBr to completely remove the mitochondrial DNAs in the cells to construct mitochondrion-free p0 cells, MCM8 was knocked down in normal THP-1 or p0 THP-1, the cells were then stimulated with SeV, the expressions of IFN-α and IFN-β were detected by Q-PCR, and the level of pIRF3 (IRF3 protein activated by phosphorylation) was detected by western blot. […] In Panel D, four columns are taken as a group and represent, from left to right, ctrl siRNA blank control group, MCM8 siRNA control group, ctrl siRNA group of mitochondrion-free cells, and MCM8 siRNA group of mitochondrion-free cells. […] On the contrary, drugs that inhibits or eliminats mtDNA can block the function of MCM8 in regulating IFN-I, and MCM8-knockdown activates cGAS-STING-IFN-I signaling pathway by increasing the amount of cytoplasmic mtDNA.

[4] = system: IFN-I; experiment: IFN-I in MCM8-knockdown THP-1 cells stimulated with SeV, with CsA or EtBr (mitochondrion-free p0 cells) treatment; type: cell-based, human; conditions: mitochondrion-free p0 THP-1 cells from EtBr treatment
Method: as §1

[5] = molecular target: T1, TRIM21 (Homo sapiens, UniProt P19474); experiment: Co-immunoprecipitation of Flag-TRIM21 and HA-MCM8 in HeLa cells; type: binding
T1 construct: Flag; expressed in transfected cells; host or cells: HeLa
From the text: Further, HeLa cells were transfected with Flag-TRIM21 and HA-MCM8 and subjected to co-immunoprecipitation analysis.

[6] = system: mitochondrial LC3; experiment: Western blot of mitochondrial LC3 and mitochondrial proteins in Hela cells overexpressing MCM8; type: cell-based; conditions: with or without LPS or SeV, vs EV control
From the text: Based on the findings in Embodiment 6, MCM8 is related to the amount of cytoplasmic mtDNA and cGAS-STING-IFN-I signaling pathway, while the amount of mtDNA is related to mitophagy, and therefore, the experiment was further carried out as follows. Experiment of MCM8-knockdown inhibiting mitophagy-related proteins: in MCM8-knockdown THP-1 cells, detection indicators related to mitophagy were studied. The cells were stimulated or not stimulated with LPS and SeV, respectively, and the expressions of mitochondrial LC3 and other mitochondrial proteins TOM20, MFN2, PINK1 and COXIV were detected by western blot. It was found from the results that, compared with the control group (Ctrl siRNA), MCM8-knockdown could inhibit the activation of mitochondrial LC3 and increase the amounts of mitochondrial proteins (TOM20, MFN2, PINK1, and COXIV) (see Panel A, FIG. 4). Correspondingly, MCM8 (Flag-MCM8) was overexpressed in Hela cells, the cells were stimulated or not stimulated with LPS and SeV, respectively, and the expressions of mitochondrial LC3 and other mitochondrial proteins (TOM20, MFN2, PINK1, and COXIV) were detected by western blot.

[7] = system: IFN-β; experiment: IFN-β mRNA level by Q-PCR in 293T cells overexpressing MCM8 or its mutants, stimulated with poly(dA:dT); type: cell-based; conditions: 200 ng overexpressed
Method: Besides the previously found A276P and S365N mutations, the inventors found other point mutations related to Kawasaki disease, namely, S280C mutation and S764A mutation, and further conducted cloning and cell experiments, comprising the steps of using 293T cells to separately overexpress 200 ng MCM8, and each of mutants, namely, MCM8 (A276P), MCM8 (S280C), MCM8 (S365N) and MCM8 (S764A); and 24 hours after transfection, stimulating the cells with poly(dA:dT) for 0, 12 and 24 h, collecting RNA, and detecting the mRNA level of IFN-β by Q-PCR. […] Therefore, it can be further considered that the previously found mutations A276P and S365N in MCM8 are both mutation factors that affect the function of MCM8 in regulating IFN-I and lead to Kawasaki disease, while the mutations S280C and S764A are also newly discovered mutations in systemic vasculitis such as Kawasaki disease. These two mutations may be used to diagnose or assist in the diagnosis of Kawasaki disease and systemic vasculitis diseases similar to Kawasaki disease (e.g., systemic lupus erythematosus).

[8] = system: LC3; experiment: Binding of full-length, truncated and point-mutated MCM8 to LC3
From the text: Proteins that directly bind to LC3 generally have a LIR motif, the inventors, when predicting with website whether MCM8 has a LIR motif, find that the sequence between the sites MCM8 272-277 is LIR motif. According to the functional domain of MCM8, the inventors constructed truncated mutants in various truncated forms of MCM8 and detected the results of the binding thereof to LC3.
By means of 3D structure prediction, the binding of MCM8 LIR motif to LC3 was simulated (see Panels C and D, FIG. 5).

[9] = stimulation with LPS and poly(dA:dT)

T1 sequence (P19474 whole entry): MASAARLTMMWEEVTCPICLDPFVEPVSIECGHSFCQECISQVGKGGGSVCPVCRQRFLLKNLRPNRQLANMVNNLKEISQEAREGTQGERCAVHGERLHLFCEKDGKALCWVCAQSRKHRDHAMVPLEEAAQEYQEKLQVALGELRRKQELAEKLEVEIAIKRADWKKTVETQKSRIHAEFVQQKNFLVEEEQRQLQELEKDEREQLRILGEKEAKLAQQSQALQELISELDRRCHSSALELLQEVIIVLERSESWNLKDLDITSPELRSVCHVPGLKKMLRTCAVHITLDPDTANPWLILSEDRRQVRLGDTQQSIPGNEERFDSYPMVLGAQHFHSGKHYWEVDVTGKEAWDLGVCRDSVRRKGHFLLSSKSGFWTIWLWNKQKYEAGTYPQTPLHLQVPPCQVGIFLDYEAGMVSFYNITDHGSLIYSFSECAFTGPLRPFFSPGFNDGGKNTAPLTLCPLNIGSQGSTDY

Molecule: CC(=N)NCc1cccc(CN)c1 [1400W]
- nuclear export of MCM8 [1, 9]: inhibited
- ubiquitination of MCM8 mediated by TRIM21 [2]: significantly inhibited

Molecule: CC[n+]1c(-c2ccccc2)c2cc(N)ccc2c2ccc(N)cc21.[Br-] [EtBr]
- expression of pIRF3 protein [3]: significantly inhibited
- function of MCM8 in regulating IFN-I (IFN-α and IFN-β expression, Q-PCR) [4]: blocked

Molecule: NS(=O)(=O)OC[C@H]1C[C@@H](Nc2ccnc3cc(-c4cccc(SC(F)(F)F)c4)nn23)[C@H](O)[C@@H]1O [TAK-243]
- nuclear export of MCM8 [1, 9]: obviously inhibited

Molecule: CCC(=C/[C@H](C)C/C=C/C(C)=C/[C@@H](C)C(=O)[C@@H](C)[C@H](O)[C@@H](C)C/C(C)=C/C(=O)O)/C=C/[C@@H]1OC(=O)C=C[C@@H]1C [leptomycin B]
- nuclear export of MCM8 ([1]; stimulation with SeV and LPS): significantly inhibited

- binding to TRIM21 upon stimulation ([5]; LPS or poly(dA:dT)): the binding increased
- binding to E3 ubiquitin ligase TRIM21 ([5]; co-immunoprecipitation): could bind
- direct binding to LC3 ([8]; mass spectrometry experiments): could directly bind to LC3
B1: MCM8: Full-length MCM8 protein (SEQ ID NO: 2), overexpressed in cells (protein, listed as Homo sapiens)
chain: MNGEYRGRGFGRGRFQSWKRGRGGGNFSGKWREREHRPDLSKTTGKRTSEQTPQFLLSTKTPQSMQSTLDRFIPYKGWKLYFSEVYSDSSPLIEKIQAFEKFFTRHIDLYDKDEIERKGSILVDFKELTEGGEVTNLIPDIATELRDAPEKTLACMGLAIHQVLTKDLERHAAELQAQEGLSNDGETMVNVPHIHARVYNYEPLTQLKNVRANYYGKYIALRGTVVRVSNIKPLCTKMAFLCAACGEIQSFPLPDGKYSLPTKCPVPVCRGRSFTALRSSPLTVTMDWQSIKIQELMSDDQREAGRIPRTIECELVHDLVDSCVPGDTVTITGIVKVSNAEEGSRNKNDKCMFLLYIEANSISNSKGQKTKSSEDGCKHGMLMEFSLKDLYAIQEIQAEENLFKLIVNSLCPVIFGHELVKAGLALALFGGSQKYADDKNRIPIRGDPHILVVGDPGLGKSQMLQAACNVAPRGVYVCGNTTTTSGLTVTLSKDSSSGDFALEAGALVLGDQGICGIDEFDKMGNQHQALLEAMEQQSISLAKAGVVCSLPARTSIIAAANPVGGHYNKAKTVSENLKMGSALLSRFDLVFILLDTPNEHHDHLLSEHVIAIRAGKQRTISSATVARMNSQDSNTSVLEVVSEKPLSERLKVVPGETIDPIPHQLLRKYIGYARQYVYPRLSTEAARVLQDFYLELRKQSQRLNSSPITTRQLESLIRLTEARARLELREEATKEDAEDIVEIMKYSMLGTYSDEFGNLDFERSQHGSGMSNRSTAKRFISALNNVAERTYNNIFQFHQLRQIAKELNIQVADFENFIGSLNDQGYLLKKGPKVYQLQTM
modifications: Flag or HA tag
- activation of LC3 [6]: promoted the activation of LC3 more obviously
- mitochondrial proteins (TOM20, MFN2, PINK1, COXIV) [6]: inhibited the increase of mitochondrial proteins
- IFN-β level (mRNA, Q-PCR) ([7]; poly(dA:dT) 0 h): 0
- IFN-β level (mRNA, Q-PCR) ([7]; poly(dA:dT) 12 h): 100
- IFN-β level (mRNA, Q-PCR) ([7]; poly(dA:dT) 24 h): 250

B2: MCM8 (S280C): MCM8 with point mutation S280C (protein, listed as Homo sapiens)
chain: MNGEYRGRGFGRGRFQSWKRGRGGGNFSGKWREREHRPDLSKTTGKRTSEQTPQFLLSTKTPQSMQSTLDRFIPYKGWKLYFSEVYSDSSPLIEKIQAFEKFFTRHIDLYDKDEIERKGSILVDFKELTEGGEVTNLIPDIATELRDAPEKTLACMGLAIHQVLTKDLERHAAELQAQEGLSNDGETMVNVPHIHARVYNYEPLTQLKNVRANYYGKYIALRGTVVRVSNIKPLCTKMAFLCAACGEIQSFPLPDGKYSLPTKCPVPVCRGRSFTALRSCPLTVTMDWQSIKIQELMSDDQREAGRIPRTIECELVHDLVDSCVPGDTVTITGIVKVSNAEEGSRNKNDKCMFLLYIEANSISNSKGQKTKSSEDGCKHGMLMEFSLKDLYAIQEIQAEENLFKLIVNSLCPVIFGHELVKAGLALALFGGSQKYADDKNRIPIRGDPHILVVGDPGLGKSQMLQAACNVAPRGVYVCGNTTTTSGLTVTLSKDSSSGDFALEAGALVLGDQGICGIDEFDKMGNQHQALLEAMEQQSISLAKAGVVCSLPARTSIIAAANPVGGHYNKAKTVSENLKMGSALLSRFDLVFILLDTPNEHHDHLLSEHVIAIRAGKQRTISSATVARMNSQDSNTSVLEVVSEKPLSERLKVVPGETIDPIPHQLLRKYIGYARQYVYPRLSTEAARVLQDFYLELRKQSQRLNSSPITTRQLESLIRLTEARARLELREEATKEDAEDIVEIMKYSMLGTYSDEFGNLDFERSQHGSGMSNRSTAKRFISALNNVAERTYNNIFQFHQLRQIAKELNIQVADFENFIGSLNDQGYLLKKGPKVYQLQTM
- IFN-β level (mRNA, Q-PCR) ([7]; poly(dA:dT) 24 h): below 250

- binding to LC3 ([8]; MCM8 constructs with or without LIR motif): greatly reduced
B3: MCM8 (A276P): MCM8 with point mutation A276P in the LIR motif, found in Kawasaki disease patients (protein)
chain: MNGEYRGRGFGRGRFQSWKRGRGGGNFSGKWREREHRPDLSKTTGKRTSEQTPQFLLSTKTPQSMQSTLDRFIPYKGWKLYFSEVYSDSSPLIEKIQAFEKFFTRHIDLYDKDEIERKGSILVDFKELTEGGEVTNLIPDIATELRDAPEKTLACMGLAIHQVLTKDLERHAAELQAQEGLSNDGETMVNVPHIHARVYNYEPLTQLKNVRANYYGKYIALRGTVVRVSNIKPLCTKMAFLCAACGEIQSFPLPDGKYSLPTKCPVPVCRGRSFTPLRSSPLTVTMDWQSIKIQELMSDDQREAGRIPRTIECELVHDLVDSCVPGDTVTITGIVKVSNAEEGSRNKNDKCMFLLYIEANSISNSKGQKTKSSEDGCKHGMLMEFSLKDLYAIQEIQAEENLFKLIVNSLCPVIFGHELVKAGLALALFGGSQKYADDKNRIPIRGDPHILVVGDPGLGKSQMLQAACNVAPRGVYVCGNTTTTSGLTVTLSKDSSSGDFALEAGALVLGDQGICGIDEFDKMGNQHQALLEAMEQQSISLAKAGVVCSLPARTSIIAAANPVGGHYNKAKTVSENLKMGSALLSRFDLVFILLDTPNEHHDHLLSEHVIAIRAGKQRTISSATVARMNSQDSNTSVLEVVSEKPLSERLKVVPGETIDPIPHQLLRKYIGYARQYVYPRLSTEAARVLQDFYLELRKQSQRLNSSPITTRQLESLIRLTEARARLELREEATKEDAEDIVEIMKYSMLGTYSDEFGNLDFERSQHGSGMSNRSTAKRFISALNNVAERTYNNIFQFHQLRQIAKELNIQVADFENFIGSLNDQGYLLKKGPKVYQLQTM

— patent publication US20240067683A1, “USE OF MCM8-CGAS-STING-IFN-I SIGNAL PATHWAY AS DISEASE TARGET” (Guangzhou Women and Children's Medical Center, priority 2020, published 2024)
